Source: patent US20110014125

Columns and labels:
[1] = system: Fe/Fe3O4 nanoparticle-TCPP assemblies featuring the urokinase cleavage sequence
[2] = system: T1, oligopeptide SRSRSRSRSRSGRSAGGGC (SEQ ID NO: 18) as spacer between a pyrene fluorophore and a coumarin acceptor
T1 sequence: SRSRSRSRSRSGRSAGGGC

[3] = system: T2, oligopeptide CGGGSGRSAGGGC (SEQ ID NO: 35) tethering Zn-TCPP and TCPP porphyrins to a stealth-protected Fe/Fe3O4 nanoparticle
T2 sequence: CGGGSGRSAGGGC

[4] = system: T3, oligopeptide CGGGSGRSAGGGC (SEQ ID NO: 35) linking two gold nanoparticles (Au-Au nanoparticle assembly)
T3 sequence: CGGGSGRSAGGGC

Question: How did the “cleavage rate (rate constant k from TCPP luminescence at 656 nm vs. time)” value [1] turn out when urokinase was run?
Answer: The value was “the cleavage rate increases by 3-5 times per order of magnitude of increase in urokinase concentration”.

Question: What about the “coumarin emission (FRET from pyrene, excitation 280 nm) over 0-15 minutes” value [2] of the same substance?
Answer: The value was “The coumarin emission decreases with time”.

Question: And the “fluorescence band at 607 nm over 0-6 minutes” value [3]?
Answer: Its value is “distinct decrease of the fluorescence band at λ1=607 nm”.

Question: What about the “maximum of the gold plasmon absorption (UV/Vis absorption, after 180 seconds with urokinase)” value [4] of the same substance?
Answer: The value was “shift from 523 nm to 517 nm within 180 seconds”.

Question: And the “maximum of the gold plasmon absorption (UV/Vis absorption, before cleavage)” value [4]?
Answer: Its value is “shift from 523 nm to 517 nm within 180 seconds”.
